Tests used:
[1] = target: T1, Rabbit ANG2 (rabbit, UniProt G1T9B3 19-496); test: SPR, Biacore T200, mean of three experiments
T1 sequence: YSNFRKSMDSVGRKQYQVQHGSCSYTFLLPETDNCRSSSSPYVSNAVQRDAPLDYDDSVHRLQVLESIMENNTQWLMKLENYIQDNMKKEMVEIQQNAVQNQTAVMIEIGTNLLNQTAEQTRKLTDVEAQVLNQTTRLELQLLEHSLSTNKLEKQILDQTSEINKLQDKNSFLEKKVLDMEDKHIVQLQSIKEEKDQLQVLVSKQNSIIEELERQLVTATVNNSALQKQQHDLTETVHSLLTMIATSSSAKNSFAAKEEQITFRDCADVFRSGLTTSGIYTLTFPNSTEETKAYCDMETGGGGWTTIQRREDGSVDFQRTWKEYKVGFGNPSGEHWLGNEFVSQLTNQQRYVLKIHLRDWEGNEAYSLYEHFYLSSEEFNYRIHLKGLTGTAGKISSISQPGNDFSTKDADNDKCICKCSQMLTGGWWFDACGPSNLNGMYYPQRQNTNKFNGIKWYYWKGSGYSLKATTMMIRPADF
Experimental: (§1) The antibody was diluted to 1 μg/mL and was captured onto channel 2 for 30 s, and channel 1 was the blank control channel. The gradient-diluted Human ANG2, Rhesus ANG2, Rabbit ANG2, Rat ANG2 and Mouse ANG2 were sequentially injected into channels 1 and 2 of the chip, from low to high concentrations (0-32 nM), at a flow rate of 30 μL/min, with one concentration per cycle, and with 180 s association time and 1200 s dissociation time at 25° C. Finally, the chip was regenerated using Glycine pH 1.5 at 30 μL/min for 30 s. The affinity assay was repeated three times.

[2] = target: T2, Rhesus ANG2 (rhesus, UniProt F6QXG0 19-496); test: SPR, Biacore T200, antibody captured on Protein G chip, experiment 1
T2 sequence: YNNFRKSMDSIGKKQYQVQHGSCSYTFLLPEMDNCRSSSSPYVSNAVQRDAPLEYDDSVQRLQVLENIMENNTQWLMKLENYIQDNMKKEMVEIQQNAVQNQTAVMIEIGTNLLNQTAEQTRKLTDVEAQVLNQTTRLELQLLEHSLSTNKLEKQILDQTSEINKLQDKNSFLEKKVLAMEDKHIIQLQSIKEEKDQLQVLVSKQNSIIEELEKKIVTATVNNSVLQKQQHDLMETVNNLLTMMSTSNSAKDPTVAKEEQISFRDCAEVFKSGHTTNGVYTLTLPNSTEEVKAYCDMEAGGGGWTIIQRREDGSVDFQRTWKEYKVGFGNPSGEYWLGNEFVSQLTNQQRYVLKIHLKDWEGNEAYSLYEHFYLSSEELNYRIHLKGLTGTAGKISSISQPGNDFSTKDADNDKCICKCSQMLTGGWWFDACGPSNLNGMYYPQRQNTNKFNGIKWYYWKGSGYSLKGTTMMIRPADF
Experimental: as §1

[3] = target: T1, Rabbit ANG2; test: as above
Experimental: as §1

[4] = target: T3, human Ang2 (human, UniProt O15123 19-496, limits assumed); test: as above
T3 construct: also called hAng2; h Ang2
T3 sequence: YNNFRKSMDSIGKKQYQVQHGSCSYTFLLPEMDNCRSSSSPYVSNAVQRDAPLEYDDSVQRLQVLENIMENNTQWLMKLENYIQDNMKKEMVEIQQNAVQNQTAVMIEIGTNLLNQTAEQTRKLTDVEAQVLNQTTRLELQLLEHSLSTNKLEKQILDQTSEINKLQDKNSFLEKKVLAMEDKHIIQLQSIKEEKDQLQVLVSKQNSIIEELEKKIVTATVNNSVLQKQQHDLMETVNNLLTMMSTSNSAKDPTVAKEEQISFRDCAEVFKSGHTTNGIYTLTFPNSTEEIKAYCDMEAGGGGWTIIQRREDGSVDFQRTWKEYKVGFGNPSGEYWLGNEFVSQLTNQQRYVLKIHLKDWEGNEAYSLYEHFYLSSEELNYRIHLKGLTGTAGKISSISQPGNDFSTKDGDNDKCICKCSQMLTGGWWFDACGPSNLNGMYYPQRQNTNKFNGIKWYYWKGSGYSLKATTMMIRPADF
Experimental: as §1

[5] = target: T2, Rhesus ANG2; test: SPR, Biacore T200, antibody captured on Protein G chip, experiment 2
Experimental: as §1

[6] = target: T1, Rabbit ANG2; test: as above
Experimental: as §1

[7] = target: T3, human Ang2; test: as above
Experimental: as §1

B1: humanized antibody hz81H10.4 (antibody, human IgG1, kappa, V domains shown)
VH: EVQLVESGGGLVKPGGSLRLSCAASGFTFSNYWMNWVRQAPGKGLEWVAEIRLKSNNYATHYAESVKGRFTISRDVSKNTVYLQMNSLKTEDTAVYYCTDTAPFAYWGQGTLVTVSS
VL: DIQMTQSPSSLSASVGDRVTITCKASQDVGTDVAWYQQKPGKAPKLLIYWASTRHTGVPSRFSGSGSGTDFTLTISSLQPEDFATYYCQQYSSYPLTFGGGTKVEIKR
notes: also called IBI335
[1]
  Kd: 0.48 nM
[2]
  Kd: 0.183 nM
  koff: 4.87e-05 s⁻¹
  kon: 266000 M⁻¹ s⁻¹
[3]
  Kd: 0.518 nM
  koff: 0.000153 s⁻¹
  kon: 294000 M⁻¹ s⁻¹
[4]
  Kd: 0.0694 nM
  koff: 1.74e-05 s⁻¹
  kon: 250000 M⁻¹ s⁻¹
[5]
  Kd: 0.126 nM
  koff: 3.67e-05 s⁻¹
  kon: 291000 M⁻¹ s⁻¹
[6]
  Kd: 0.477 nM
  koff: 0.000152 s⁻¹
  kon: 318000 M⁻¹ s⁻¹
[7]
  Kd: 0.0319 nM
  koff: 8.25e-06 s⁻¹
  kon: 259000 M⁻¹ s⁻¹
